{"source": "patent WO2021212049A2", "molecular_target": "trimeric SARS-CoV-2 spike (residues 1-1213), 986PP987, furin sites disrupted, C-terminal foldon and hexahistidine tag (SARS-CoV-2) (UniProt P0DTC2)", "data": [{"substance": "2B04 Fab (papain-cleaved Fab form of 2B04)", "values": [{"measurement": "total buried surface area of the complex", "value": 656, "unit": "Å2"}]}]}
